This note sets out measurements from patent US20140056902A1 (Kyowa Kirin, published 2014).

The labels stand for the following.
T1: human mature dimer BMP9 recombinant protein (manufactured by R&D systems, Cat#3209-BP) (human, UniProt Q9UK05 320-429)
T1 construct: Bought protein; also called human BMP9; human BMP9 recombinant protein (manufactured by R&D systems)
T1 sequence: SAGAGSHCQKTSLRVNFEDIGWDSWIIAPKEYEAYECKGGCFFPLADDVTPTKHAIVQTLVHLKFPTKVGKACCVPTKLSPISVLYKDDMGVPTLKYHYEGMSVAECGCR

B1: 3B7-3-3 antibody (antibody, mouse IgG1, V domains shown)
VH: EVQLQQSRPELVKPGASVKISCKASDYSFTDYYMNWVKQSPDKSLEWIGEISPSSGGTTYNQKFKAKATLTVDKSSSTAYMQLKSLTSEDSAVYYCATRGAFYFDYWGQGTALTVSS
VL: QIVLTQSPALMSAFPGEKVTMTCSASSSVSYMYWYQQKPRSSPKPWIYLTSNLASGVPTRFSGSGSGTSYSLTISSMEAEDAATYFCQQWSSNPRTFGGGTKLEIKR
notes: Mouse monoclonal from a BMP9 KO mouse hybridoma; mouse IgG1 heavy chain, kappa light chain
B2: 10D5-2-3 antibody-humanized antibody HV0LV3 (antibody, V domains shown)
VH: EVQLVESGGGLVQPGGSLRLSCAASGFTFSNYWMNWVRQAPGKGLEWVGHIRLKSDNYATHYAESVRGRFTISRDDSKNSLYLQMNSLKTEDTAVYYCARGSNYVFAFWGQGTLVTVSS
VL: DIVMTQSPDSLAVSLGERATINCRASESVDNYGISFMNWFQQKPGQPPKLLIYAASNQGSGVPDRFSGSGSGTDFTLTISPLQAEDVAVYFCQQSKEVPWTFGQGTKLEIK
notes: Expressed from pKANTEX93
B3: 10D5-2-3 antibody-humanized antibody HV0LV4 (antibody, V domains shown)
VH: B2 VH
VL: B2 VL with M4L, F40Y, L82M, V89M, F91Y
notes: Expressed from pKANTEX93
B4: 10D5-2-3 chimeric antibody (c10D5-2-3 antibody) (antibody, V domains shown)
VH: EVKLEESRGGLVQPGGSMKLSCVASGFTFSNYWMNWVRQSPEKGLEWVAHIRLKSDNYATHYAESVRGRFTISRDDSKSSVFLQMNNLRAEDTGIYYCTGGSNYVFAFWGQGTLVTVSA
VL: not shown
notes: Human chimeric antibody; The V regions were cloned into the humanized antibody expression vector pKANTEX93
B5: 10D5-2-3 antibody-humanized antibody HV9LV3 (antibody, V domains shown)
VH: B2 VH with G8R, L18M, G49A, N79S, L81V, A94G, V95I, A99T, R100G
VL: B2 VL
notes: Expressed from pKANTEX93
B6: 10D5-2-3 antibody-humanized antibody HV9LV4 (antibody, V domains shown)
VH: B2 VH with G8R, L18M, G49A, N79S, L81V, A94G, V95I, A99T, R100G
VL: B2 VL with M4L, F40Y, L82M, V89M, F91Y
notes: Expressed from pKANTEX93
B7: 10D5-2-3 antibody-humanized antibody HV7aLV2 (antibody, V domains shown)
VH: B2 VH with G8R, L18M, G49A, N79S, A94G, A99T, R100G
VL: B2 VL with P81S
notes: Expressed from pKANTEX93
B8: 10D5-2-3 antibody-humanized antibody HV7aLV0 (antibody, V domains shown)
VH: B2 VH with G8R, L18M, G49A, N79S, A94G, A99T, R100G
VL: B2 VL with F40Y, P81S, F91Y
notes: Expressed from pKANTEX93
B9: 10D5-2-3 antibody-humanized antibody HV4bLV6 (antibody, V domains shown)
VH: B2 VH with G49A, V95I, A99T, R100G
VL: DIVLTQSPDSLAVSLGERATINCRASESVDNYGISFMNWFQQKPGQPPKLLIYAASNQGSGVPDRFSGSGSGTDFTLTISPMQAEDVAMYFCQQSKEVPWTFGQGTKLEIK
notes: Expressed from pKANTEX93
B10: 10D5-2-3 antibody-humanized antibody HV9LV0 (antibody, V domains shown)
VH: B2 VH with G8R, L18M, G49A, N79S, L81V, A94G, V95I, A99T, R100G
VL: B2 VL with F40Y, P81S, F91Y
notes: Expressed from pKANTEX93
B11: 10D5-2-3 antibody-humanized antibody HV4bLV3 (antibody, V domains shown)
VH: B2 VH with G49A, V95I, A99T, R100G
VL: B2 VL
notes: Expressed from pKANTEX93
B12: 10D5-2-3 antibody-humanized antibody HV9LV6 (antibody, V domains shown)
VH: B2 VH with G8R, L18M, G49A, N79S, L81V, A94G, V95I, A99T, R100G
VL: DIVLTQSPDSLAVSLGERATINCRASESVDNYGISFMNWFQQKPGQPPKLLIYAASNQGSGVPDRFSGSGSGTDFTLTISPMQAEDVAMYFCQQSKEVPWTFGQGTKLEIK
notes: Expressed from pKANTEX93
B13: 10D5-2-3 antibody-humanized antibody HV7bLV2 (antibody, V domains shown)
VH: B2 VH with G8R, L18M, G49A, L81V, A94G, A99T, R100G
VL: B2 VL with P81S
notes: Expressed from pKANTEX93
B14: 10D5-2-3 antibody-humanized antibody HV9LV2 (antibody, V domains shown)
VH: B2 VH with G8R, L18M, G49A, N79S, L81V, A94G, V95I, A99T, R100G
VL: B2 VL with P81S
notes: Expressed from pKANTEX93
B15: human mature dimer BMP10 recombinant protein (manufactured by R&D systems, Cat#2926-BP) (ligand)
chain: NAKGNYCKRTPLYIDFKEIGWDSWIIAPPGYEAYECRGVCNYPLAEHLTPTKHAIIQALVHLKNSQKASKACCVPTKLEPISILYLDKGVVTYKFKYEGMAVSECGCR

Numbering of substitutions follows the chain as printed.

The term Kd denotes the equilibrium constant for the complex coming apart. For orientation: koff means the first-order rate constant of dissociation. What is called kon is the second-order rate constant of association.

The target of one experiment is B15. Briefly: ELISA, immobilized antigen (100 ng/mL coat), biotin-labeled antibody at 100 ng/mL, absorbance 450-570 nm. On the procedure: To examine specificity of the obtained antibodies to human BMP9, their binding ability to human BMP9 and human BMP10 having the highest homology to human BMP9 was tested by comparison. First, 100 ng/mL of human mature dimer BMP9 recombinant protein (manufactured by R&D systems, Cat#3209-BP), or human mature dimer BMP10 recombinant protein (manufactured by R&D systems, Cat#2926-BP) prepared in 50 mmol/L NaHCO₃ buffer (manufactured by Wako, Cat#191-01305) was added to a 96-well plate for ELISA (F96 MAXISORP NUNC-IMMUNO PLATE, manufactured by Thermo Fisher Scientific, Cat#442404) at an amount of 50 μL/well, and left at 4° C. overnight for adsorption.
Subsequently, 6D10-1-1 antibody, 10D5-2-3 antibody, 3B7-3-3 antibody, R&D antibody, or anti-BMP10 antibody (manufactured by R&D, Cat#MAB2926) that was labeled with biotin using a Biotin Labeling Kit-NH2 (manufactured by COSMO BIO, Cat#LK03) was prepared at a concentration of 100 ng/mL using 10% Super Block in TBST which was prepared by mixing SuperBlock and TBST at a ratio of 1:9. 50 μL/well thereof was aliquoted as a primary antibody, and left at room temperature for 1 hour.
The plate was washed with TBST five times, and 50 μL/well of the TMB substrate reagent (TMB+ Substrate-Chromogen, manufactured by Dako, Cat#S1599) was added for color-development. When proper color was developed, 50 μL/well of the 1 N sulfuric acid solution (manufactured by Wako, Cat#192-04755) was added, and absorbance (450 nm-570 nm) at a sample wavelength of 450 nm and at a reference wavelength of 570 nm was determined using a plate reader (manufactured by Spectra Max, Molecular Devices).
In the case of B1, the binding result was “no binding (tested: 100 ng/mL)”.

The target in another experiment is T1, human mature dimer BMP9 recombinant …. Briefly: SPR (Biacore T100), antibody captured on anti-human IgG, human BMP9 as analyte. On the procedure:
(§1) For the purpose of comparing binding activity to human BMP9 between c10D5-2-3 antibody and 22 types of 10D5-2-3 antibody-humanized antibodies obtained in Example 22-7, binding activity to human BMP9 recombinant protein (manufactured by R&D systems) was measured by surface plasmon resonance (SPR) using a BiacoreT100 instrument (manufactured by GE Healthcare bioscience).
(§2) Anti-human IgG antibody was immobilized onto a CM5 sensor chip (manufactured by GE Healthcare bioscience) using a Human Antibody Capture Kit (manufactured by GE Healthcare bioscience) in accordance with the accompanying protocol. 0.4 μg/mL of c10D5-2-3 antibody or each humanized antibody was applied to the flow cell onto which anti-human IgG antibody was immobilized, at a flow rate of 10 μL/min for 2 minutes.
(§3) Subsequently, human BMP9 recombinant protein (manufactured by R&D systems, Cat#3209-BP) was subjected to 2-fold serial dilution starting from […] to give 5 concentrations, and applied at a flow rate of 10 μL/min, and association was monitored over 3 minutes and dissociation over 3 minutes at a flow of 10 μL/min. The sensorgram thus obtained was analyzed by BiaEvaluation Software (manufactured by GE Healthcare bioscience) to calculate the rate constant of each antibody.
On the technique in general: Surface plasmon resonance follows binding to a sensor surface in real time, without labels.
As for B2, the binding result is reported as “no binding (tested: human BMP9 up to 1 nM)”.

Consider B3, for which the binding result was “no binding (tested: human BMP9 up to 1 nM)”.

For another experiment the target is unchanged. Briefly: SPR (Biacore T100), antibody captured on anti-human IgG, human BMP9 (R&D 3209-BP) as analyte, 5 concentrations from 1 nM. On the procedure:
as §1, §2, §3
In the case of B4, the Kd turned out to be 4.52 pM, the koff amounted to 0.00024 s⁻¹ and the kon is 5.32e+07 M⁻¹ s⁻¹.

As to B5, the dissociation constant (Kd) worked out at 3.52 pM, the koff worked out at 0.000279 s⁻¹ and the kon came to 7.91e+07 M⁻¹ s⁻¹.

Turning to B6, the Kd stood at 6.38 pM, the koff is 0.000739 s⁻¹ and the kon is 1.16e+08 M⁻¹ s⁻¹.

B7: the Kd was determined as 9.57 pM, the koff amounted to 0.000477 s⁻¹ and the kon is 4.98e+07 M⁻¹ s⁻¹.

Regarding B8, the Kd was determined as 9.69 pM, the off-rate constant (koff) amounted to 0.00142 s⁻¹ and the kon was 1.47e+08 M⁻¹ s⁻¹.

Turning to B9, the dissociation constant (Kd) was 11.9 pM, the dissociation rate constant (koff) is 0.000531 s⁻¹ and the kon turned out to be 4.46e+07 M⁻¹ s⁻¹.

For B10, the Kd was found to be 6.45 pM, the koff came to 0.000859 s⁻¹ and the kon is 1.33e+08 M⁻¹ s⁻¹.

As for B11, the Kd was 10.1 pM, the koff stood at 0.000556 s⁻¹ and the kon came out at 5.5e+07 M⁻¹ s⁻¹.

On to B12, for which the dissociation constant Kd was determined as 5.13 pM, the koff amounted to 0.000325 s⁻¹ and the kon came out at 6.34e+07 M⁻¹ s⁻¹.

As to B13, the Kd came out at 4.91 pM, the koff came to 0.000307 s⁻¹ and the association rate constant (kon) is 6.25e+07 M⁻¹ s⁻¹.

On to B14, for which the Kd was found to be 3.89 pM, the koff came to 0.000347 s⁻¹ and the kon amounted to 8.91e+07 M⁻¹ s⁻¹.

The target of the next experiment is T2, full-length human ALK1 expressed on the reporter cell line ALK1/p(GCCG)12-Luc/HepG2(38.5) (human, UniProt P37023 22-503). Briefly: cell-based or functional assay.
T2 sequence (P37023 22-503 limits assumed): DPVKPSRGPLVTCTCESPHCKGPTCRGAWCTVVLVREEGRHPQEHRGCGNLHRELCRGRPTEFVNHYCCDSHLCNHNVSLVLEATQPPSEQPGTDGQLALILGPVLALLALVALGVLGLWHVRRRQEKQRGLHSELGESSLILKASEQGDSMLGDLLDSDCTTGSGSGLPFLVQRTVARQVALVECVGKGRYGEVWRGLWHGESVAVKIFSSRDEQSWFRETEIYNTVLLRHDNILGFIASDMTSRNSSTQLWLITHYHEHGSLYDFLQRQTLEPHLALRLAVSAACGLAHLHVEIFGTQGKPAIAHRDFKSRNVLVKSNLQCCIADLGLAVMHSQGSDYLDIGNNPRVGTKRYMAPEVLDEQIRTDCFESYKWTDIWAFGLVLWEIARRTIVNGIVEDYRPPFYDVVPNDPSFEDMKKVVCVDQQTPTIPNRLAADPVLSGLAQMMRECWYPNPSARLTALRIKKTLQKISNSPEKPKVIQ
Consider B15, for which the “EC50 (read off the curve); luciferase activity (RLU) of human ALK1 reporter cells, with 3 ug/mL 6D10-1-1 antibody alone (filled square)” value was roughly 0.4 ng/mL.

The target of the next experiment is T2, full-length human ALK1 expressed on the …. Nature of the experiment: cell-based or functional assay. The source holds these as a separate data set.
B15: the “EC50 (read off the curve); luciferase activity (RLU) of human ALK1 reporter cells, with 3 ug/mL 10D5-2-3 antibody alone (filled square)” value was roughly 0.3 ng/mL; the “EC50 (read off the curve); luciferase activity (RLU) of human ALK1 reporter cells, with the complex of 3 ug/mL 10D5-2-3 antibody and 2 ng/mL human BMP9 (open triangle)” value is roughly 0.3 ng/mL; the “EC50 (read off the curve); luciferase activity (RLU) of human ALK1 reporter cells, with the complex of 3 ug/mL 10D5-2-3 antibody and 10 ng/mL human BMP9 (open circle)” value was roughly 0.2 ng/mL.
